# Assays:
# Experiment in all cases: split reporter
# [1] = target: β1–10 part of ZipGFP with TEV cleavage sequence (E5-β1–10-K5), cleaved by TEV protease, purified
# [2] = target: zipped β1–10 of ZipGFP with TEV cleavage sequence (E5-β1–10-K5), cleaved by co-expressed TEV protease
# [3] = target: zipped β1–10 of the ZipGFP caspase reporter (E5-β1–10-K5 with DEVD), cleaved upon apoptosis
substance,measurement,setting,value
"β11 part of ZipGFP with TEV cleavage sequence (K5-β11-E5), cleaved by TEV protease, purified",time to half-maximal fluorescence (T1/2) after mixing,[1],40 min
"zipped β11 of ZipGFP with TEV cleavage sequence (K5-β11-E5), cleaved by co-expressed TEV protease",fold increase of green fluorescence over the uncleaved reporter,[2],10 fold
"zipped β11 of the ZipGFP caspase reporter (K5-β11-E5 with DEVD), cleaved upon apoptosis",fold increase of green fluorescence (normalized to mCherry) upon apoptosis,[3],5 to 10 fold

# — paper PMC5026494
